Positions count from the first letter of the chain named. In names and notes the source's numbering stands.
B1: GFP-TDP-35: GFP-tagged 35 kDa (aa 90-414) C-terminal TDP-43 fragment (protein, UniProt Q13148 90-414, looked up, fragment)
chain: ASSAVKVKRAVQKTSDLIVLGLPWKTTEQDLKEYFSTFGEVLMVQVKKDLKTGHSKGFGFVRFTEYETQVKVMSQRHMIDGRWCDCKLPNSKQSQDEPLRSRKVFVGRCTEDMTEDELREFFSQYGDVMDVFIPKPFRAFAFVTFADDQIAQSLCGEDLIIKGISVHISNAEPKHNSNRQLERSGRFGGNPGGFGNQGGFGNSRGGGAGLGNNQGSNMGGGMNFGAFSINPAMMAAAQAALQSSWGMMGMLASQQNQSGPSGNNQNQGNMQREPNQAFGSGNNSYSGSNSGAAIGWGSASNAGSGSGFNGGFGSSMDSKSSGWGM
modifications: GFP tag
notes: GFP-tagged 35 kDa (aa 90-414) C-terminal TDP-43 fragment
B2: GFP-TDP-25: GFP-tagged 25 kDa (aa 220-414) C-terminal TDP-43 fragment (protein)
chain: VFIPKPFRAFAFVTFADDQIAQSLCGEDLIIKGISVHISNAEPKHNSNRQLERSGRFGGNPGGFGNQGGFGNSRGGGAGLGNNQGSNMGGGMNFGAFSINPAMMAAAQAALQSSWGMMGMLASQQNQSGPSGNNQNQGNMQREPNQAFGSGNNSYSGSNSGAAIGWGSASNAGSGSGFNGGFGSSMDSKSSGWGM
modifications: left off: large carriers
notes: GFP-tagged 25 kDa (aa 220-414) C-terminal TDP-43 fragment
B3: GFP-TDP-25S409A/S410A: mutant GFP-TDP-25 incapable of being phosphorylated at S409/S410 (protein)
chain: B2 chain with S190A, S191A
modifications: left off: large carriers
notes: mutant GFP-TDP-25 incapable of being phosphorylated at S409/S410
B4: GFP-TDP-ΔNR1: GFP-tagged C-terminal fragment (aa 193-414) lacking the N-terminus and the RRMI (protein, UniProt Q13148 193-414, looked up, fragment)
chain: VFVGRCTEDMTEDELREFFSQYGDVMDVFIPKPFRAFAFVTFADDQIAQSLCGEDLIIKGISVHISNAEPKHNSNRQLERSGRFGGNPGGFGNQGGFGNSRGGGAGLGNNQGSNMGGGMNFGAFSINPAMMAAAQAALQSSWGMMGMLASQQNQSGPSGNNQNQGNMQREPNQAFGSGNNSYSGSNSGAAIGWGSASNAGSGSGFNGGFGSSMDSKSSGWGM
modifications: GFP tag
notes: GFP-tagged C-terminal fragment (aa 193-414) lacking the N-terminus and the RRMI
B5: caspase-3: active human recombinant caspase-3 (CHEMICON) (protein)
chain: SGISLDNSYKMDYPEMGLCIIINNKNFHKSTGMTSRSGTDVDAANLRETFRNLKYEVRNKNDLTREEIVELMRDVSKEDHSKRSSFVCVLLSHGEEGIIFGTNGPVDLKKITNFFRGDRCRSLTGKPKLFIIQACRGTELDCGIETDSGVDDDMACHKIPVEADFLYAYSTAPGYYSWRNSKDGSWFIQSLCAMLKQYADKLEFMHILTRVNRKVATEFESFSFDATFHAKKQIPCIVSMLTKELYFYH

Tests used:
[1] = system: HEK293 cells; assay: Inclusion formation and distribution of GFP-TDP-43 constructs, confocal microscopy; assay type: cell-based; conditions: for cells with compact cytoplasmic inclusions: HEK293, 48 hours after transfection; for cellular distribution / inclusion formation: HEK293, confocal fluorescence microscopy
Protocol: HEK293 cells, grown on glass coverslips, were transfected with 0.3 μg of expression vector (GFP, GFP-TDP-43, GFP-TDP-43-caspase-resistant, GFP-TDP-35, GFP-TDP-25, or GFP-TDP-ΔNR1) by using Lipofectamine 2000 (Invitrogen) according to the manufacturer's instructions then subjected to immunofluorescence analysis 48 hours later. To determine if the cytoplasmic inclusion were insoluble, some cells were treated with 0.2% Triton X-100 prior to fixation, in order to remove soluble protein. To determine if the formation of inclusion was aggresome-dependent, some cells were treated with 1 μM nocodazole (Sigma) for 24 hours after 6 hours of transfection. Finally, to examine if inclusions were ubiquitinated, cells were cotransfected with 0.3 μg of a TDP-43 construct and 0.5 μg HA-ubiquitin, then subjected to immunofluorescence analysis 72 hours later.
(§1) The cultured HEK293 and differentiated M17 cells were fixed with 4% paraformaldehyde in phosphate-buffered saline (PBS) at 4° C. for 15 minutes and permeabilized with PBS-0.5% Triton X-100 for 10 minutes. After blocking with 5% BSA for 1 hour at 37° C., the cells were incubated overnight at 4° C. with mouse monoclonal HA antibody (1:1000, Roche Applied Science), rabbit polyclonal activated caspase-3 antibody (1:250, Cell Signaling), rabbit polyclonal anti-pTDP-43 (which detects phosphorylated S409/S410; 1:1000, COSMO BIO CO., LTD), mouse monoclonal Flag antibody (1:1000, Sigma), rabbit polyclonal M2085 (1:1000), or rabbit polyclonal M2079 (1:1000). After washing, cells were incubated with the Alexa 568-conjugated goat anti-mouse IgG secondary antibody (1:1000, Molecular Probes) or anti-rabbit IgG secondary antibody (1:500, Molecular Probes) at 37° C. for 2 hours. Finally, Hoechst 33258 (1 μg/mL, Invitrogen) was used to stain the nuclei. Images were obtained on a Zeiss LSM 510 META confocal microscope.

[2] = system: TDP-43 exon 9 skipping activity; assay: CFTR mini-gene splicing assay; assay type: cell-based
Protocol: The CFTR mini-gene splicing assay was conducted as described elsewhere (Pagani et al., J. Biol. Chem., 275(28):21041-21047 (2000) and Ayala et al., FEBS Lett., 580(5):1339-1344 (2006)). In brief, Hela cells were co-transfected with 1 μg of minigene construct and 1 μg of GFP-fusion protein expression vector. […] Then, 2 μg of total RNA was used to synthesize cDNA using the SuperScript III First-Strand Synthesis System (Invitrogen). For the PCR, 2 μL of cDNA was used in a 20 μL of reaction according to the manufacturer's protocol for Taq PCR Core Kit (Qiagen). The amplification conditions consisted of an initial denaturation step at 94° C. for 3 minutes, followed by 30 cycles of 94° C. for 30 seconds, 62° C. for 60 seconds, and 72° C. for 90 seconds.

[3] = target: T1, hnRNPA2 (Homo sapiens, UniProt P22626); assay: Co-immunoprecipitation with Flag-tagged hnRNPA2; assay type: binding; conditions: HeLa cells, probing for GFP
T1 construct: expressed in transfected cells; host or cells: HeLa cells
T1 sequence (P22626 1-341 isoform P22626-2, species assumed): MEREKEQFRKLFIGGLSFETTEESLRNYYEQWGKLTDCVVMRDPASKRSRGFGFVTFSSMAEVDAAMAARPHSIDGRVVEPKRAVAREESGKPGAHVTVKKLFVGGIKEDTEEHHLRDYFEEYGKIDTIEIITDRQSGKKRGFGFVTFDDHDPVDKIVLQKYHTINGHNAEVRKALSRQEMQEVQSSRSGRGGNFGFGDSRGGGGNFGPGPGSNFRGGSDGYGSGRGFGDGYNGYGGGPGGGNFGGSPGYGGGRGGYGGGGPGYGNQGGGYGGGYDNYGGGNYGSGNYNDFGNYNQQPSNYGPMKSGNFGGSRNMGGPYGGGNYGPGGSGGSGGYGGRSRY
Protocol: (§2) For co-immunoprecipitation studies, HeLa cells were transfected with 1 or 2 μg of each plasmid. Cells were harvested 48 hours later using Co-IP buffer (50 mM Tris-HCl, pH 7.4, 1 M NaCl, 1% Triton X-100, 5 mM EDTA) containing PMSF as well as protease and phosphatase inhibitors. The lysates were sonicated and centrifuged at 16,000 g for 20 minutes. The protein concentration of supernatants was determined by BCA assay (Thermo Scientific). Supernatant containing 500 μg of total protein was combined with Anti-Flag M2 agarose (Sigma) and incubated overnight at 4° C. with gentle shaking. The agarose was pelleted by centrifugation at 2,500 g for 5 minutes and washed with Co-IP buffer 6 times. Captured protein was eluted from the beads using loading buffer and resolved by SDS-PAGE for Western blot analysis.

[4] = target: T2, Flag-TDP-43 (Homo sapiens, UniProt Q13148); assay: Co-immunoprecipitation with Flag-TDP-43; assay type: binding; conditions: HeLa cells, probing for GFP
T2 construct: the exon skipping activity in cells overexpressing full-length TDP-43 was examined; expressed in transfected cells; host or cells: HeLa cells
T2 sequence (Q13148 whole entry): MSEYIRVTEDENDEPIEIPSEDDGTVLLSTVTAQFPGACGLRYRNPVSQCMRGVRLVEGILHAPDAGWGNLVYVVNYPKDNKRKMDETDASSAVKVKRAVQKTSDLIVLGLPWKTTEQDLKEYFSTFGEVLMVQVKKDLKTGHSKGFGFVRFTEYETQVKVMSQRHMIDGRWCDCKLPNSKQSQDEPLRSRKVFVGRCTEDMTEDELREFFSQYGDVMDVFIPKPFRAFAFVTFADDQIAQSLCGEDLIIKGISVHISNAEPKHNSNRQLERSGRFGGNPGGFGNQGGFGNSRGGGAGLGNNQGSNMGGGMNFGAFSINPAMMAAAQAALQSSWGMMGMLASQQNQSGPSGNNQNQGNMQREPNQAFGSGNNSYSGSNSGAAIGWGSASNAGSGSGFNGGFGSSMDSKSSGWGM
Protocol: as §2

[5] = system: differentiated M17 neuroblastoma cells; assay: Toxicity assay (LDH release, activated caspase-3 staining); assay type: cell-based
Protocol: M17 neuroblastoma cells, seeded at 2.5×10^3 cells per well in 24-well plates, were grown in Neurobasal A/B27 medium containing Glutamax (Invitrogen) and 10 μM retinoic acid (Sigma) to induce differentiation. Seven days later, cells were transfected with 0.2 μg of expression vector for 72 hours. The medium was collected, and a LDH assay (Promega) was used to measure LDH levels as an indicator of toxicity. Then, cells were fixed, and immunofluorescent staining was done using an antibody against activated caspase-3 (1:250; Cell signaling) and the nuclear marker, bisbenzimide (Hoechst 33258).
as §1

[6] = target: T3, Recombinant human GST-TDP43 (Homo sapiens, UniProt Q13148); assay: In vitro caspase-3 assay; assay type: biochemical; conditions: 2 units, 2 and 4 hours, Coomassie staining
T3 construct: Full-length or caspase-3-treated recombinant GST-TDP43 (0.5 μg) was separated by 10% SDS-PAGE
T3 sequence (Q13148 whole entry): as above
Protocol: Recombinant human GST-TDP43 (2 μg) was incubated with active human recombinant caspase-3 (2 units, CHEMICON International, Inc., Temecula, Calif.) in reaction buffer containing 100 mM NaCl, 50 mM HEPES, 10 mM DTT, 1 mM EDTA, 10% glycerol, 0.1% CHAPS, pH 7.4) at 37° C. for 2 hours or 4 hours, respectively. Cleavage reactions were terminated by addition of 2×SDS loading buffer. Full-length or caspase-3-treated recombinant GST-TDP43 (0.5 μg) was separated by 10% SDS-PAGE and stained with Coomassie blue.

[7] = medium collected 72 hours after transfection

Row | Molecule | cells with compact cytoplasmic inclusions [1] | cellular distribution [1] | LDH release compared to cells transfected with full-length or caspase-resistant TDP-43 [5, 7] | inclusion formation [1] | other results
1 | B1 | ~25 % of cells | cytoplasmic and nuclear distribution | – | – | –
2 | B2 | ~75 % of cells | cytoplasmic and nuclear distribution | significantly higher | – | CFTR exon 9 exclusion (endogenous TDP-43 background) ([2]; HeLa cells cotransfected with CFTR minigene, RT-PCR, compared to GFP): did not differ; exon skipping activity in cells overexpressing Flag-TDP-43 ([2]; cotransfected with CFTR mini-gene and Flag-TDP-43): did not reduce; nuclear localization of Flag-TDP-43 ([1]; HEK293 co-transfected with Flag-TDP-43): not appreciably altered; binding to hnRNPA2 [3]: interact with hnRNPA2; binding to Flag-TDP-43 [4]: only weakly interacted; inclusion-positive cells positive for fragmented nuclei and activated caspase-3 ([5]; quantitative analysis, Hoechst and activated caspase-3 staining): ~50%
3 | B3 | – | – | significantly higher | formed cytoplasmic inclusions | –
4 | B4 | – | diffuse cytoplasmic and nuclear immunoreactivity | – | no detectable inclusions | LDH levels compared to cells expressing only GFP [5, 7]: no different
5 | B5 | – | – | – | – | cleavage of recombinant GST-tagged TDP-43 [6]: three distinct fragments of approximately 42, 35, and 25 kD

From US20100136573A1, “DIAGNOSING NEURODEGENERATIVE DISEASES” (priority 2007, published 2010)
